This series can be described thus: soluble on expression in E. coli; label from the status in PepcDB or PDB records.
For the sequence “MGSDKIHHHHHHMTQRHSRILLFVVNTPEFFLSHRLPIAIAAHKAGYEVHVASAEGDGVQAVLAHGFVHHSIGFARSGQNPWVEFRTLVSLVQVMRRVQPDIVHLITIKPVLYGGIAARLVRVPAVVSAVSGLGTVFLAHTWATRLRRWFIIELYKAAFKQRSLAVIFQNPDDRDTLISSGAIQSGDTRMIRGSGVSLDDYPCVTEPEGKPVAVMAARLLRNKGVVEFVGAARILRDRGVDVDMRLIGSPDLDNPASVTELELERWKSESVVTLMGYRKDIAHQYASSNIVCLPSYYGEGLPKSLVEAAACGRAVVTTDHPGCRDAILPDETGVLIPIKDSVALANAIQRLIENPDLRRKMGKAGRELAEEAFSIDQIVEQHLKIYDEVMATVRNGSLRQ”, the “soluble on expression in E. coli” value is on record as “not soluble”.

Turning to “MGSDKIHHHHHHVSCDYFNRGLCQSCRLMSKPVTEQLLEKEARLTHLLGGLPVDERLAPVSGPEFGFRNKAKMVVMGAAHAPVLGIPGPDGQPVDLSHCPLYPQDMQALLLELTSFVRRAGIPPYRVDKAKGELKFILLTRSAVRGEFMLRFVLRSKDAIPRIERELPKLLADFPAIKVVSVNLQPVHMARLEGEEEIFLTQATRLDEVFNGVPLFIRPKSFFQTNPEVASRLYATAAKWVDELSPKSLWDLFCGVGGFGLHCANESLPVTGIEIEAEAIDCAKTSAAAMGLDNLSFAALDSTDFAMGQQAQEVPEVIIVNPPRRGIGEELCERLSAFGPRAIIYSSCNPETLAKDLALISGYRIARVQLFDMFPHSDHFEVLCLLLKEAACASAD”, the “soluble on expression in E. coli” value is recorded as “not soluble”.

For “MAIKNAFYAQSGGVTAVINASACGVIQTARKHPDQIGKVYAGRNGIIGALKEELIDTSLESDDAIQALIHTPGGAFGSCRYKLKNISENQREYERLIEVFRAHDIGYFFYNGGGDSQDTAYKVSQLADRMGYPITCIGVPKTVDNDLPFTDCCPGFGSVAKYIATSTLEASLDIKSMCETSTKVFILEVMGRHAGWIAAAGGLAGQSEGEPPHVILFPEIPFNREKFLERVDQCVRDYGYCVVVASEGAQYEDGRFVADAGAKDAFGHTQLGGVAPALANMVKQALGHKYHWAVADYLQRAARHIASATDVEQAYAVGKAAVEMALAGKQALMPTIVRDQAKPYRWSIGEANLSEVANQEKKMPIHYITDNGFGITQDCRDYLQPLIAGESFPPFDDGLPRVAKLKNQLVEKKLRTEFEL”, the “soluble on expression in E. coli” value was “soluble”.

On to “MRGSHHHHHHTDPALRACELLGMSANVPTDICFSFTGLVQRGGGTGPHKDGWGITFYEGKGCRTFKDPQPSFNSPIAKLVQDYPIKSCSVVAHIRQANRGEVALENTHPFTRELWGRNWTYAHNGQLTGYKSLETGNFRPVGETDSEKAFCWLLHKLTQRYPRTPGNMAAVFKYIASLADELRQKGVFNMLLSDGRYVMAYCSTNLHWITRRAPFGVATLLDQDVEIDFSSQTTPNDVVTVIATQPLTGNETWQKIMPGEWRLFCLGERVVGLCGR”, for which the “soluble on expression in E. coli” value is on record as “soluble”.

For “MGSDKIHHHHHHVSRLDQLNDWLHQALQGKPHHLTTASADASFRRYFRVHLADGATLIAMDAPPPQEDCRPFVKVAALFEQAGLNVPKVLAQDVENGFLLLTDLGAQTFLDVLNEDNADTLFRDAIDALVTWQLASRPGVLPAYDEALLRRELCLFPDWYVARHLNVELSESQRSTLENAFSTIVRYNLAQPSVYVHRDYMPRNLMISTPSPGILDFQDAVYGPISYDVASLFKDAFISWQEERVLDGTIRYWEKARKAGLPVRSDFGDFYRDFEWMGLQRHLKVLGIFARIHYRDGKPKYLADTPRFMNYVRQVCVRYGELRPLLRLLDELEKREPQFGYTF”, the “soluble on expression in E. coli” value is recorded as “not soluble”.

Take “MLLAMELLLEYDYYWKLDNIIANVQRNFPSNSLTVLFPKTHLLISPENMGRVAAKLIRLTEKNQQRNGIVTFKLYYQHEEGEEEEEEEVDEDEDEEGEEGEEEEEEEDEVEEVPQKISEIFNLGAHLVGEPPENCWYLEDILTIPKEIIKDAFGDVTVWYGKSFQLRNSIANRRIHFNLFYTKNYLKKFFMERDGCMMETEFLRHFKDIAN”: the “soluble on expression in E. coli” value was “not soluble”.
